Source: the supplement of paper PMC10065799, “High-throughput profiling of sequence recognition by tyrosine kinases and SH2 domains using bacterial peptide display” (eLife, 2023)

Experiments:
c-Src SH2 = experiment: SH2 binding enrichment of the phosphorylated peptide, bacterial display (enrichment ratio); higher = better substrate or ligand; peptides without Tyr show the background
SHP2-C SH2 = experiment: as above
Grb2 SH2 = Grb2 SH2 (UniProt P62993); experiment: as above
c-Src = experiment: phosphorylation enrichment, bacterial display (enrichment ratio); higher = better substrate or ligand; peptides without Tyr show the background
Jak2 = Jak2 (UniProt O60674); experiment: as above
Jak2, sequence (O60674 whole entry, looked up): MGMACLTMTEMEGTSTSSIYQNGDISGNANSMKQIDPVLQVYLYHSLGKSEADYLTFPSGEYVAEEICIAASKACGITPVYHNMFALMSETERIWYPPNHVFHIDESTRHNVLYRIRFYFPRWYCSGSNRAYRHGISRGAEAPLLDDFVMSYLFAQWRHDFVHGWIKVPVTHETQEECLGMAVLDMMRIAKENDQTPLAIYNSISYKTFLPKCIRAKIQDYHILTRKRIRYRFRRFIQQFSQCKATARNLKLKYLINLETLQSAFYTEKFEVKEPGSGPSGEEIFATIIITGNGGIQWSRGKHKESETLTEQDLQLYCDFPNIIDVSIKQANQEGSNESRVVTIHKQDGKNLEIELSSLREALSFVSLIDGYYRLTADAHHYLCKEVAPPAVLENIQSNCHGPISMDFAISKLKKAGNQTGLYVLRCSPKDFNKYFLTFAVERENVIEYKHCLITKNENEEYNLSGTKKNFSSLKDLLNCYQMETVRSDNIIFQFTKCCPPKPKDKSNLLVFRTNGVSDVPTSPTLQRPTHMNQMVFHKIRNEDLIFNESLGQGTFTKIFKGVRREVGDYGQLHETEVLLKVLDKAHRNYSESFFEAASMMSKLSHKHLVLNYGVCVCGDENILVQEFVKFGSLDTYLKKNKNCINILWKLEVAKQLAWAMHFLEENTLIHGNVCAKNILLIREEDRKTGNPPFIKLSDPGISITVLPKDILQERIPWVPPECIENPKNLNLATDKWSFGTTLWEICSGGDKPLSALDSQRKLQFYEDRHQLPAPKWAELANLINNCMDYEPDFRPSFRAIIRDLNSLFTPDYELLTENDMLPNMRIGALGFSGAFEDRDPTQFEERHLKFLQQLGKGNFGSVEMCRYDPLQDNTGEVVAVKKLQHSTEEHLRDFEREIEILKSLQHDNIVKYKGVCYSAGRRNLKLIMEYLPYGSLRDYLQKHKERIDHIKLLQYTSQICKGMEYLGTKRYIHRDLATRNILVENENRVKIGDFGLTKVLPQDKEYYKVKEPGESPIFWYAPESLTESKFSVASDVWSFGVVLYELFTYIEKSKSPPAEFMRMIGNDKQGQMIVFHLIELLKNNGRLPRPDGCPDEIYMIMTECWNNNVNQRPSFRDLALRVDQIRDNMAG

FGFR3 = FGFR3 (UniProt P22607); experiment: as above
Fer (mouse) = experiment: as above
Hck = Hck (UniProt P08631); experiment: as above
Hck, sequence (P08631 whole entry, looked up): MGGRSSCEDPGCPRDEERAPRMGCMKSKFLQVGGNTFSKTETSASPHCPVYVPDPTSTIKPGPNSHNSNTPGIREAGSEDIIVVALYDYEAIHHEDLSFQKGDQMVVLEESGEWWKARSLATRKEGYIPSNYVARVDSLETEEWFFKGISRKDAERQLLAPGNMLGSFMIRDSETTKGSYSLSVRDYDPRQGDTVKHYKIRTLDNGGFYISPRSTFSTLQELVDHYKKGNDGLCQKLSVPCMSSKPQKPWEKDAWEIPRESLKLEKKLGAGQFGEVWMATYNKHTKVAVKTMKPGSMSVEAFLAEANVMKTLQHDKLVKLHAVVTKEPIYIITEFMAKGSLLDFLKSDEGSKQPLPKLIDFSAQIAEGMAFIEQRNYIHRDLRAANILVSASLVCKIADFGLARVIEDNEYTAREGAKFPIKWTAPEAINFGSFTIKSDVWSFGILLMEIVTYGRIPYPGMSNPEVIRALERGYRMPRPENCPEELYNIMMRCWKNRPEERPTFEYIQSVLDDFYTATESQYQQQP

AncSZ = experiment: as above
EPHB1 = EPHB1 (UniProt P54762); experiment: as above
EPHB1, sequence (P54762 whole entry, looked up): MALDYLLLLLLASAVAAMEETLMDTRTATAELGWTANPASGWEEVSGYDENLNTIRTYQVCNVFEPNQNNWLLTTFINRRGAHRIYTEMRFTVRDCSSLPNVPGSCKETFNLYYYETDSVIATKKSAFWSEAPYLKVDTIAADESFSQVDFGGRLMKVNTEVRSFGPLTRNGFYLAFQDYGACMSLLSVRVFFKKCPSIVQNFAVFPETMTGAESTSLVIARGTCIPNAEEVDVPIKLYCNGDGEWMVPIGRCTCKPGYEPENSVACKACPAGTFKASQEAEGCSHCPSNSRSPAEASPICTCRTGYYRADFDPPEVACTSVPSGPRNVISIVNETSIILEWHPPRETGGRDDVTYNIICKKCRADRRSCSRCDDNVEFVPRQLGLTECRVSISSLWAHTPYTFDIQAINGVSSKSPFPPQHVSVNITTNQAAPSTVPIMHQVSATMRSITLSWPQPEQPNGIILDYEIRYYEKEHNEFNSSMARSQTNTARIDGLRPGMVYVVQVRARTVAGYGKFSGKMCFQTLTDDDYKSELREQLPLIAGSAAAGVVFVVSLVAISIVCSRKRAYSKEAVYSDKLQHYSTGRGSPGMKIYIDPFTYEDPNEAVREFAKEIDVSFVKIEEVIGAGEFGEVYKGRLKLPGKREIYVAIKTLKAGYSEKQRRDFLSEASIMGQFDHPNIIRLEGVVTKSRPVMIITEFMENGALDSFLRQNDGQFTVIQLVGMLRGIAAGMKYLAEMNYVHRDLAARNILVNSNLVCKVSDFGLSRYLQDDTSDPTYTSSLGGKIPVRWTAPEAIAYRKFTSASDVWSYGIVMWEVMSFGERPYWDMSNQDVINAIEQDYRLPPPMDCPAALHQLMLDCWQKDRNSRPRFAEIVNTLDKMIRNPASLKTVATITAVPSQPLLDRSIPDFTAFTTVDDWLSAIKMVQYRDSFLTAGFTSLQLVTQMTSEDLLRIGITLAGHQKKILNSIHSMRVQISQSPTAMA

Fes = Fes (UniProt P07332); experiment: as above
Fes, sequence (P07332 whole entry, looked up): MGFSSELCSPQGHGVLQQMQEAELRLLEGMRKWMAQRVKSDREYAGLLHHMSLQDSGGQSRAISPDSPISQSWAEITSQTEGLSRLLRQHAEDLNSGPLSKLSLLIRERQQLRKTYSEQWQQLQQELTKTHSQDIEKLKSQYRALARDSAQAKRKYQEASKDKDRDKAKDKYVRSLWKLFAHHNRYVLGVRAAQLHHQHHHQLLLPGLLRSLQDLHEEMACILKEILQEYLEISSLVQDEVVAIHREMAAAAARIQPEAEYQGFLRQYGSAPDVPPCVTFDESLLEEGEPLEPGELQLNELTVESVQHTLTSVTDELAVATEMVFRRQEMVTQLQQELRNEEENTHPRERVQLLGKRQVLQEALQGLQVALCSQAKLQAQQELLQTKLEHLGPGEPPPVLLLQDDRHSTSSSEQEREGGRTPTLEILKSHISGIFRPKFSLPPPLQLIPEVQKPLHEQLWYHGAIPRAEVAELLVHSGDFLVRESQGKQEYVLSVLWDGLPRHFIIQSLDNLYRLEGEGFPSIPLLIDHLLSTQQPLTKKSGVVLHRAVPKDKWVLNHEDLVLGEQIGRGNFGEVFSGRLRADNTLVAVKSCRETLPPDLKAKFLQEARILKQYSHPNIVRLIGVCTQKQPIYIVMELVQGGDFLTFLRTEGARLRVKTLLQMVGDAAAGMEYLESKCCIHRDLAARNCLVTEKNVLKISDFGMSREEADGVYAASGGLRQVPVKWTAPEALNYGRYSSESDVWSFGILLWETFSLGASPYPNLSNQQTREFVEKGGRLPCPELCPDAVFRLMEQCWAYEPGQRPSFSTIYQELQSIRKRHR

FGFR1 = FGFR1 (UniProt P11362); experiment: as above
c-Abl (mouse) = experiment: as above
MERTK = MERTK (UniProt Q12866); experiment: as above
MERTK, sequence (Q12866 whole entry, looked up): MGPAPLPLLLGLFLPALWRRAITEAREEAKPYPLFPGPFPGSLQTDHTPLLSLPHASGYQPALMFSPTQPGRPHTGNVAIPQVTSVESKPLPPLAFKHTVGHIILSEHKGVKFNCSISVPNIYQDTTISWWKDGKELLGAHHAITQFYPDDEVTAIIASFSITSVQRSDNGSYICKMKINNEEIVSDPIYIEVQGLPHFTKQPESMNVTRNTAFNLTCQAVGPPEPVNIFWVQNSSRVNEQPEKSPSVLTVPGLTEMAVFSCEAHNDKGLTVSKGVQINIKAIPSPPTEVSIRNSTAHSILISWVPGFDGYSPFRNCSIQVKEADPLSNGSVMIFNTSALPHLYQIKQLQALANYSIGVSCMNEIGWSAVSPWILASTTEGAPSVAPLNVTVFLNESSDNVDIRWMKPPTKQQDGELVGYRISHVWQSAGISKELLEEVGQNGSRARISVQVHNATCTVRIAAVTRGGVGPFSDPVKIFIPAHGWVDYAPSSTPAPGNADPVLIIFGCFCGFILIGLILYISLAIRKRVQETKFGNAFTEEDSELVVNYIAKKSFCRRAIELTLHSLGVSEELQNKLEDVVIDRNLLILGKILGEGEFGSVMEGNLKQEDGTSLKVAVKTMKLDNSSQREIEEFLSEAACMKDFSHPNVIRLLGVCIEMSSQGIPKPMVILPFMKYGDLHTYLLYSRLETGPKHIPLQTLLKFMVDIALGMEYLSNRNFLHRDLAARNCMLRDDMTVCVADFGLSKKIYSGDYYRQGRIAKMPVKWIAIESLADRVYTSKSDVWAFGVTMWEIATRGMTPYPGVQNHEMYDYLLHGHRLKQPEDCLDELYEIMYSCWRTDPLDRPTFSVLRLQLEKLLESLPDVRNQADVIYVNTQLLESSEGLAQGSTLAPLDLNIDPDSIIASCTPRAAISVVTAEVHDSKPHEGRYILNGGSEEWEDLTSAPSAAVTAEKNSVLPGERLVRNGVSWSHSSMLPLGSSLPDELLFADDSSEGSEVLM

EPHB2 = EPHB2 (UniProt P29323); experiment: as above
Fyn = Fyn (UniProt P06241); experiment: as above
Fyn, sequence (P06241 whole entry, looked up, the tested form may be a part): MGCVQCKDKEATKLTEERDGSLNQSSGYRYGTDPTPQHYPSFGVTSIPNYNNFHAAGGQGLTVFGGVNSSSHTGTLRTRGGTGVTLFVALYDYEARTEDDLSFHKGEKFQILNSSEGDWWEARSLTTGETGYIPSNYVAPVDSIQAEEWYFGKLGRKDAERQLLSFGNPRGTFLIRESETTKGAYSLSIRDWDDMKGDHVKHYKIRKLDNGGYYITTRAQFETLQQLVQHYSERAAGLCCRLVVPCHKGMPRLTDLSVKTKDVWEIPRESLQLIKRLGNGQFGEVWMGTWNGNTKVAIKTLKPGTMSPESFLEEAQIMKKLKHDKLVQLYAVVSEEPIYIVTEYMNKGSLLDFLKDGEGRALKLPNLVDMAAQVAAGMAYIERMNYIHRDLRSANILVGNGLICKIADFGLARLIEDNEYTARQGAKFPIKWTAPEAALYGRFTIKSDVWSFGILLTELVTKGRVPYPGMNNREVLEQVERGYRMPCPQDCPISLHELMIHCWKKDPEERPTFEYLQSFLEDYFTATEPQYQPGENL
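For SH2 binding enrichment of the phosphorylated peptide, bacterial display in this document: peptide library displayed on the E. coli surface as eCPX fusions, selected cells deep-sequenced, score is each peptide's frequency after selection divided by its frequency in the input.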
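For phosphorylation enrichment, bacterial display in this document: 11-residue human phosphosite peptides and single-mutation variants displayed on the E. coli surface, counted by deep sequencing, each peptide's frequency after selection divided by its frequency in the unselected input library; frequency after pTyr selection over input frequency; kinase dosed for 20-30% of maximal phosphorylation in three min.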

SH2 binding enrichment (c-Src SH2) | SH2 binding enrichment (SHP2-C SH2) | SH2 binding enrichment (Grb2 SH2) | Sequence | phosphorylation enrichment (c-Src) | phosphorylation enrichment (Jak2) | phosphorylation enrichment (FGFR3) | phosphorylation enrichment (Fer (mouse)) | phosphorylation enrichment (Hck) | phosphorylation enrichment (AncSZ) | phosphorylation enrichment (EPHB1) | phosphorylation enrichment (Fes) | phosphorylation enrichment (FGFR1) | phosphorylation enrichment (c-Abl (mouse)) | phosphorylation enrichment (MERTK) | phosphorylation enrichment (EPHB2) | phosphorylation enrichment (Fyn)
0.388 | 0.423 | 0.893 | PRSRSYSSTSI [REPS2_Y462] | 1.33 | 1.2 | 0.611 | 0.57 | 0.468 | 1.11 | 0.538 | 1.71 | 0.743 | 0.932 | 1 | 0.523 | 1.06
0.594 | 0.799 | 0.792 | TFTVSYLPDMS [FLNC_Y1602_YF] | 0.478 | 0.975 | 0.735 | 0.436 | 0.48 | 1.08 | 0.631 | 1.28 | 0.607 | 0.835 | 0.442 | 0.599 | 0.495
0.637 | 0.636 | 0.976 | IQKKYYRAILE [CHD7_Y1218] | 0.324 | 0.563 | 0.485 | 0.384 | 0.432 | 0.649 | 0.396 | 0.761 | 0.424 | 0.468 | 0.341 | 0.586 | 0.407
0.619 | 0.854 | 0.977 | EPDSLYGCGGG [ATM_Y2019] | 2.33 | 1.11 | 0.674 | 1.06 | 2.94 | 1.01 | 0.663 | 1.26 | 0.619 | 1.04 | 0.6 | 0.766 | 2.06
0.58 | 0.715 | 0.959 | LSPPVYLTNEW [NRK_Y885_I880L] | 0.909 | 1.54 | 0.758 | 0.636 | 0.651 | 0.935 | 0.736 | 1.26 | 0.702 | 1.21 | 0.616 | 0.851 | 0.587
0.835 | 0.667 | 1.08 | PVDTYYDSTRG [DYNC2H1_Y2231_M2227V] | 0.955 | 0.909 | 1.58 | 0.713 | 1.31 | 1.18 | 0.934 | 1.12 | 2.01 | 0.953 | 0.554 | 0.608 | 1.09
0.521 | 0.852 | 0.823 | RLPSGYGLAFR [DLK1_Y262_YF] | 0.478 | 0.837 | 0.595 | 0.49 | 0.509 | 0.734 | 0.416 | 0.885 | 0.422 | 0.889 | 0.396 | 0.526 | 0.549
0.467 | 0.646 | 0.798 | GVKLTYGDAQS [SLC28A1_Y404_N409S] | 0.349 | 0.46 | 0.453 | 0.373 | 0.456 | 0.599 | 0.472 | 0.646 | 0.429 | 0.52 | 0.335 | 0.34 | 0.426
0.681 | 0.862 | 0.851 | GDYYCYLAEVA [YWHAG_Y133_R132C] | 4.14 | 6.33 | 12.3 | 5.61 | 4.66 | 5.32 | 13 | 1.64 | 13.5 | 5.22 | 7.27 | 14.7 | 4.95
0.534 | 0.595 | 0.746 | RILDVYIFLGP [GAA_Y340_G335R] | 0.393 | 0.858 | 0.672 | 0.584 | 0.547 | 1 | 0.842 | 1.05 | 0.836 | 0.543 | 0.492 | 0.676 | 0.46
0.617 | 0.553 | 0.777 | SDVNKYSTAFG [GJB3_Y16_G12D] | 0.361 | 0.451 | 0.459 | 0.462 | 0.386 | 0.521 | 0.467 | 0.67 | 0.348 | 0.509 | 0.393 | 0.387 | 0.42
0.541 | 0.754 | 0.817 | GPIEVYLCPEE [E2F3_Y349] | 0.683 | 1.29 | 0.743 | 0.458 | 0.549 | 1.18 | 0.696 | 1.08 | 0.462 | 0.724 | 0.437 | 0.533 | 0.525
0.509 | 0.726 | 0.602 | RNGNRYFKGIV [DCX_Y64_D62N] | 0.846 | 1.02 | 0.513 | 0.6 | 0.527 | 1.33 | 0.516 | 0.607 | 0.578 | 0.799 | 0.701 | 0.51 | 0.42
8.81 | 1.1 | 9.88 | YQLPYYNTVPS [BMPR1A_Y458_M460T] | 3.46 | 4.98 | 3.69 | 2.1 | 1.46 | 2 | 0.642 | 0.684 | 5.46 | 2.34 | 5.81 | 0.799 | 0.92
1.06 | 2.59 | 0.998 | CTTIHYMYMCN [TP53_Y234_N235M] | 0.332 | 0.973 | 0.772 | 0.556 | 0.45 | 1.06 | 0.62 | 1.14 | 0.485 | 0.681 | 0.34 | 0.517 | 0.362
1.03 | 0.487 | 0.749 | SPGGDYAAMGA [ERBB3_Y1276_G1271S] | 0.445 | 0.708 | 0.609 | 0.456 | 0.455 | 0.7 | 1.52 | 0.861 | 0.705 | 0.622 | 0.476 | 0.901 | 0.484
0.951 | 0.749 | 0.947 | VFLGAYDCFLP [SLC22A5_Y486_R488C_YF] | 4.75 | 1.17 | 0.757 | 4.68 | 3.27 | 1.6 | 2.6 | 1.28 | 0.631 | 0.953 | 5.67 | 4.47 | 5.7

SH2 binding enrichment (c-Src SH2) | SH2 binding enrichment (SHP2-C SH2) | SH2 binding enrichment (Grb2 SH2) | Sequence | phosphorylation enrichment (c-Src) | phosphorylation enrichment (Jak2) | phosphorylation enrichment (FGFR3) | phosphorylation enrichment (Fer (mouse)) | phosphorylation enrichment (Hck) | phosphorylation enrichment (AncSZ) | phosphorylation enrichment (EPHB1) | phosphorylation enrichment (Fes) | phosphorylation enrichment (FGFR1) | phosphorylation enrichment (c-Abl (mouse)) | phosphorylation enrichment (MERTK) | phosphorylation enrichment (EPHB2) | phosphorylation enrichment (Fyn)
0.425 | 0.581 | 0.76 | DVSKEYGHLLP [HRC_Y99] | 0.836 | 0.687 | 0.833 | 0.656 | 0.801 | 0.852 | 0.743 | 1.09 | 0.551 | 0.747 | 0.59 | 0.608 | 0.624
0.694 | 0.807 | 0.98 | RGESFYQDTMN [RARS_Y338_R341T] | 0.602 | 0.941 | 0.888 | 1.79 | 0.429 | 1.02 | 2.62 | 0.98 | 0.695 | 1.03 | 1.02 | 1.63 | 0.634
0.485 | 0.579 | 1.22 | QEMMEYRHQIQ [DES_Y324] | 1.12 | 2.03 | 1.04 | 0.303 | 0.902 | 2.04 | 0.93 | 2.13 | 0.677 | 1.86 | 0.762 | 0.833 | 0.559
0.384 | 0.581 | 0.516 | ALAHKYPGGGG [HBB_Y146_H147P] | 0.281 | 0.262 | 0.662 | 0.432 | 0.273 | 0.214 | 0.894 | 0.632 | 0.853 | 0.436 | 0.334 | 0.84 | 0.559
0.427 | 0.502 | 0.633 | CTNELYMMMRD [FGFR1_Y730] | 1.15 | 1.35 | 1.28 | 0.693 | 1.47 | 1.34 | 1.86 | 1.38 | 0.935 | 0.898 | 2 | 1.09 | 0.705
1.44 | 1.77 | 2.04 | VRFVDYVLFRS [FAM189B_Y361_S358F] | 0.477 | 1.01 | 1.65 | 0.458 | 0.499 | 1 | 2.13 | 1.1 | 2.27 | 0.764 | 0.461 | 0.919 | 0.542
1.02 | 0.888 | 1.12 | VKANTYEKYWP [GATM_Y100] | 2.02 | 0.728 | 0.471 | 0.506 | 1.01 | 0.785 | 0.59 | 0.71 | 0.454 | 0.492 | 0.976 | 0.825 | 1.32
2.77 | 0.977 | 0.955 | GYRVYYTPDSR [PTPRF_Y451] | 1.54 | 2.29 | 0.675 | 0.477 | 2.69 | 0.794 | 2.35 | 0.768 | 0.73 | 1.89 | 5.3 | 2.15 | 1.24
0.563 | 0.859 | 0.938 | TDEFEYDELIV [TGM1_Y136_YF] | 0.716 | 1.34 | 2.03 | 0.61 | 1.56 | 2.29 | 1.12 | 2.77 | 1.69 | 0.91 | 0.622 | 2.23 | 1.59
0.562 | 0.677 | 0.772 | MENFIYESMRF [CYP19A1_Y361_YF] | 6.6 | 0.626 | 0.577 | 14.1 | 7.67 | 1.3 | 4.14 | 5.1 | 0.551 | 2.71 | 3.74 | 2.63 | 8.61
0.852 | 0.998 | 1.46 | VLSIDYFFPPQ [AR_Y552_P549S_YF] | 0.827 | 1.58 | 10.5 | 0.516 | 0.572 | 5.83 | 1.08 | 1.12 | 12.7 | 0.784 | 0.719 | 0.843 | 0.497
1.52 | 1.46 | 1.73 | KKHFSYAWPFY [BRDT_Y291] | 0.375 | 0.647 | 0.564 | 0.385 | 0.425 | 1 | 0.622 | 0.965 | 0.495 | 0.493 | 1.22 | 0.428 | 0.456
0.543 | 0.94 | 0.802 | RYVTRSIYNRE [HLA-DQB1_Y62_Y62S] | 0.705 | 1.1 | 0.327 | 0.495 | 0.682 | 0.772 | 0.226 | 1.1 | 0.622 | 0.735 | 0.601 | 0.389 | 0.553
0.798 | 0.988 | 1.25 | ATDLAYYLVRK [ASL_Y375] | 1.27 | 3.03 | 4.21 | 0.786 | 0.885 | 1.63 | 0.602 | 1.41 | 4.91 | 1.04 | 1.19 | 0.543 | 0.85
0.479 | 6.03 | 0.646 | DAPVVYLGSFG [PRAG1_Y132_R137G] | 0.507 | 0.776 | 0.623 | 0.475 | 0.631 | 0.863 | 0.389 | 0.851 | 0.491 | 0.671 | 0.437 | 0.579 | 0.514
0.585 | 0.688 | 1.38 | DLAGRYFALKS [CKB_Y173_YF] | 0.545 | 1.57 | 0.613 | 0.37 | 0.453 | 0.633 | 0.487 | 0.848 | 0.412 | 1.49 | 0.558 | 0.574 | 0.433
